Laboratory results published in paper PMC9482650, “Quantitative fragmentomics allow affinity mapping of interactomes” (Nature Communications, 2022).

T1: APBA1_1, Q02410
T1 sequence (Q02410 651-752, limits assumed, looked up): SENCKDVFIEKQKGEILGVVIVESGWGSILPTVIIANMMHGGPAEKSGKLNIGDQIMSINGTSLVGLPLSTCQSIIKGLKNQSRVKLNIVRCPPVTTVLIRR

T2: APBA2_1, Q99767
T2 sequence (Q99767 563-664, limits assumed, looked up): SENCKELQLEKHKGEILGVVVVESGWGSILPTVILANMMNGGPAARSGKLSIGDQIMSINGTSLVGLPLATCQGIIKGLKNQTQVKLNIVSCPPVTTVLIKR

T3: APBA3_1, O96018
T3 sequence (O96018 389-490, limits assumed, looked up): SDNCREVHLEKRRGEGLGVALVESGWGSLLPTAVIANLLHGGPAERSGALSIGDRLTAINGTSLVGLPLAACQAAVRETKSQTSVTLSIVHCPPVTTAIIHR

T4: GRIP1_2, Q9Y3R0
T4 sequence (Q9Y3R0 145-248, limits assumed, looked up): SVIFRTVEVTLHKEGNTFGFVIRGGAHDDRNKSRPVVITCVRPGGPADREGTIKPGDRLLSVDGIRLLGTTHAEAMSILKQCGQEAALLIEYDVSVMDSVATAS

T5: GRIP1_5, Q9Y3R0
T5 sequence (Q9Y3R0 568-668, limits assumed, looked up): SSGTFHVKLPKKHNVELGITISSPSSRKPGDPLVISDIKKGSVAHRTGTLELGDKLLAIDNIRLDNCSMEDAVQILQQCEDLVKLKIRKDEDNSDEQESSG

T6: MPDZ_5, O75970
T6 sequence (O75970 695-796, limits assumed, looked up): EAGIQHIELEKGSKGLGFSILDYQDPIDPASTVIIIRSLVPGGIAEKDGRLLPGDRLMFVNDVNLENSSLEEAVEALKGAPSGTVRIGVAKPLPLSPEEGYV

T7: NHERF3_1, Q5T2W1
T7 sequence (Q5T2W1 4-100, limits assumed, looked up): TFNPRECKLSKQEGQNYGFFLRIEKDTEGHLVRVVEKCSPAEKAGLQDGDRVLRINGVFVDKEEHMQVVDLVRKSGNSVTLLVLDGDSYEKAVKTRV

T8: SHANK1, Q9Y566
T8 sequence (Q9Y566 658-767, limits assumed, looked up): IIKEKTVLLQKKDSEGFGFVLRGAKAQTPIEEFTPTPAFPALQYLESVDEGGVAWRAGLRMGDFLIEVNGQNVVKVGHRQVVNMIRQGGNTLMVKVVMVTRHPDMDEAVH

T9: SNTB1, Q13884
T9 sequence (Q13884 107-205, limits assumed, looked up): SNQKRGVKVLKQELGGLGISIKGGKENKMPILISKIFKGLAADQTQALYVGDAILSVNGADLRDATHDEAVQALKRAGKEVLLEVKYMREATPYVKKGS

T10: SNTG1, Q9NSN8
T10 sequence (Q9NSN8 52-150, limits assumed, looked up): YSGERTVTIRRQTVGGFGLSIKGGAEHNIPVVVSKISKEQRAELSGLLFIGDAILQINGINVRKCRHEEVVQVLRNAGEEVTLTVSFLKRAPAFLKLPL

T11: SNTG2, Q9NY99
T11 sequence (Q9NY99 68-166, limits assumed, looked up): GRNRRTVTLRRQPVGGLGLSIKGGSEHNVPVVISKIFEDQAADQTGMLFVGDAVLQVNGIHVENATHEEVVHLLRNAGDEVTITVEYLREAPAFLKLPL

T12: TJP3_3, O95049
T12 sequence (O95049 375-456, limits assumed, looked up): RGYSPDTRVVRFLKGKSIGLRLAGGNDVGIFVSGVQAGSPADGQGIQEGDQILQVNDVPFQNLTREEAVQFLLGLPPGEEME


What follows are binders tested against AHNAK1, Q09666 (assay: holdup assay). Conditions: plain residues with an end cap or a label only (N-terminal biotin on a linker: ado-ado).
AHNAK1, Q09666, sequence (Q09666 4-100): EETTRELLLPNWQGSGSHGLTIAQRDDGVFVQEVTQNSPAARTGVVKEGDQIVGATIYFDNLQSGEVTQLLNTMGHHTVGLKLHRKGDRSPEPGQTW
Set-up: key: below the threshold = too weak to quantify, mostly under pKd 3.1 to 4

| Binder | pKd |
| --- | --- |
| LEPAVRSSEL [SH2D3C, Q8N5H7] | below the threshold |
| RELVMRVTTV [MARCHF4, Q9P2E8] | below the threshold |

Each binder was assayed against T1, APBA1_1, Q02410 (assay: holdup assay). Conditions: plain residues with an end cap or a label only (N-terminal biotin on a linker: ado-ado).
Set-up: key: below the threshold = too weak to quantify, mostly under pKd 3.1 to 4

| Binder | pKd |
| --- | --- |
| LEPAVRSSEL [SH2D3C, Q8N5H7] | below the threshold |
| RELVMRVTTV [MARCHF4, Q9P2E8] | below the threshold |

Each binder was assayed against T2, APBA2_1, Q99767 (assay: holdup assay). Conditions: plain residues with an end cap or a label only (N-terminal biotin on a linker: ado-ado).
Set-up: key: below the threshold = too weak to quantify, mostly under pKd 3.1 to 4

| Binder | pKd |
| --- | --- |
| LEPAVRSSEL [SH2D3C, Q8N5H7] | below the threshold |
| RELVMRVTTV [MARCHF4, Q9P2E8] | below the threshold |

The binders below were run against T3, APBA3_1, O96018 (assay: holdup assay). Conditions: plain residues with an end cap or a label only (N-terminal biotin on a linker: ado-ado).
Set-up: key: below the threshold = too weak to quantify, mostly under pKd 3.1 to 4

| Binder | pKd |
| --- | --- |
| LEPAVRSSEL [SH2D3C, Q8N5H7] | below the threshold |
| RELVMRVTTV [MARCHF4, Q9P2E8] | below the threshold |

Each binder was assayed against DLG1_3, Q12959 (assay: holdup assay). Conditions: plain residues with an end cap or a label only (N-terminal biotin on a linker: ado-ado).
DLG1_3, Q12959, sequence (Q12959 457-571): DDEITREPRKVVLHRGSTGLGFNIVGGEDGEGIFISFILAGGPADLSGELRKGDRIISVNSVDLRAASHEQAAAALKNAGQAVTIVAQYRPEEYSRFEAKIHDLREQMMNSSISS
Set-up: key: below the threshold = too weak to quantify, mostly under pKd 3.1 to 4

| Binder | pKd |
| --- | --- |
| LEPAVRSSEL [SH2D3C, Q8N5H7] | below the threshold |
| RELVMRVTTV [MARCHF4, Q9P2E8] | 5.12 |

The binders below were run against DLG2_3, Q15700 (assay: holdup assay). Conditions: plain residues with an end cap or a label only (N-terminal biotin on a linker: ado-ado).
Set-up: key: below the threshold = too weak to quantify, mostly under pKd 3.1 to 4

| Binder | pKd |
| --- | --- |
| LEPAVRSSEL [SH2D3C, Q8N5H7] | below the threshold |
| RELVMRVTTV [MARCHF4, Q9P2E8] | 4.93 |

These binders were tested against GOPC, Q9HD26 (assay: holdup assay). Conditions: plain residues with an end cap or a label only (N-terminal biotin on a linker: ado-ado).
Set-up: key: below the threshold = too weak to quantify, mostly under pKd 3.1 to 4

| Binder | pKd |
| --- | --- |
| LEPAVRSSEL [SH2D3C, Q8N5H7] | below the threshold |
| RELVMRVTTV [MARCHF4, Q9P2E8] | 5.03 |

What follows are binders tested against GORASP1, Q9BQQ3 (assay: holdup assay). Conditions: plain residues with an end cap or a label only (N-terminal biotin on a linker: ado-ado).
GORASP1, Q9BQQ3, sequence (Q9BQQ3 1-208): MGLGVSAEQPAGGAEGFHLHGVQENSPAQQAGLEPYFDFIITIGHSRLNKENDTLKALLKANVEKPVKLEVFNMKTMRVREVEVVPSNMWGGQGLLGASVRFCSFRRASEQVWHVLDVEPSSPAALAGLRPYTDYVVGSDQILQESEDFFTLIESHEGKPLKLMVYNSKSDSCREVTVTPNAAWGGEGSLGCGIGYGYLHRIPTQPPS
Set-up: key: below the threshold = too weak to quantify, mostly under pKd 3.1 to 4

| Binder | pKd |
| --- | --- |
| LEPAVRSSEL [SH2D3C, Q8N5H7] | below the threshold |
| RELVMRVTTV [MARCHF4, Q9P2E8] | 4.36 |

What follows are binders tested against GRID2IP_2, A4D2P6 (assay: holdup assay). Conditions: plain residues with an end cap or a label only (N-terminal biotin on a linker: ado-ado).
GRID2IP_2, A4D2P6, sequence (A4D2P6 272-370): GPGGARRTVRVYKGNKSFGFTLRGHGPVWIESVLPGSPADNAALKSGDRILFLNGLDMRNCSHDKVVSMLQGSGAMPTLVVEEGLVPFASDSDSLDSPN
Set-up: key: below the threshold = too weak to quantify, mostly under pKd 3.1 to 4

| Binder | pKd |
| --- | --- |
| LEPAVRSSEL [SH2D3C, Q8N5H7] | 4.38 |
| RELVMRVTTV [MARCHF4, Q9P2E8] | 4.06 |

What follows are binders tested against T4, GRIP1_2, Q9Y3R0 (assay: holdup assay). Conditions: plain residues with an end cap or a label only (N-terminal biotin on a linker: ado-ado).
Set-up: key: below the threshold = too weak to quantify, mostly under pKd 3.1 to 4

| Binder | pKd |
| --- | --- |
| LEPAVRSSEL [SH2D3C, Q8N5H7] | below the threshold |
| RELVMRVTTV [MARCHF4, Q9P2E8] | below the threshold |

Each binder was assayed against T5, GRIP1_5, Q9Y3R0 (assay: holdup assay). Conditions: plain residues with an end cap or a label only (N-terminal biotin on a linker: ado-ado).
Set-up: key: below the threshold = too weak to quantify, mostly under pKd 3.1 to 4

| Binder | pKd |
| --- | --- |
| LEPAVRSSEL [SH2D3C, Q8N5H7] | below the threshold |
| RELVMRVTTV [MARCHF4, Q9P2E8] | below the threshold |

These binders were tested against GRIP2_6, Q9C0E4 (assay: holdup assay). Conditions: plain residues with an end cap or a label only (N-terminal biotin on a linker: ado-ado).
GRIP2_6, Q9C0E4, sequence (Q9C0E4 648-740): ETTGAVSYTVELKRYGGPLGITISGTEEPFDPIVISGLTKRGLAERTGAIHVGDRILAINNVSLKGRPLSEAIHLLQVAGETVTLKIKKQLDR
Set-up: key: below the threshold = too weak to quantify, mostly under pKd 3.1 to 4

| Binder | pKd |
| --- | --- |
| LEPAVRSSEL [SH2D3C, Q8N5H7] | below the threshold |
| RELVMRVTTV [MARCHF4, Q9P2E8] | below the threshold |

What follows are binders tested against GRIP2_7, Q9C0E4 (assay: holdup assay). Conditions: plain residues with an end cap or a label only (N-terminal biotin on a linker: ado-ado).
GRIP2_7, Q9C0E4, sequence (Q9C0E4 934-1023): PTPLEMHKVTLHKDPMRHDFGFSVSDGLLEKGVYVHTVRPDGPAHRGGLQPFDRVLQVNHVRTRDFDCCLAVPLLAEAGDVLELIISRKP
Set-up: key: below the threshold = too weak to quantify, mostly under pKd 3.1 to 4

| Binder | pKd |
| --- | --- |
| LEPAVRSSEL [SH2D3C, Q8N5H7] | below the threshold |
| RELVMRVTTV [MARCHF4, Q9P2E8] | below the threshold |

Each binder was assayed against Inadl_8, Q8NI35 (assay: holdup assay). Conditions: plain residues with an end cap or a label only (N-terminal biotin on a linker: ado-ado).
Inadl_8, Q8NI35, sequence (Q8NI35 1425-1530): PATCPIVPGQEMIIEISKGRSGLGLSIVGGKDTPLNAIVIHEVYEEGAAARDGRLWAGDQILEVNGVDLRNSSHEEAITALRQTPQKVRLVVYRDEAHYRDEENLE
Set-up: key: below the threshold = too weak to quantify, mostly under pKd 3.1 to 4

| Binder | pKd |
| --- | --- |
| LEPAVRSSEL [SH2D3C, Q8N5H7] | below the threshold |
| RELVMRVTTV [MARCHF4, Q9P2E8] | 5.5 |

Each binder was assayed against Inadl_9, Q8NI35 (assay: holdup assay). Conditions: plain residues with an end cap or a label only (N-terminal biotin on a linker: ado-ado).
Inadl_9, Q8NI35, sequence (Q8NI35 1530-1615): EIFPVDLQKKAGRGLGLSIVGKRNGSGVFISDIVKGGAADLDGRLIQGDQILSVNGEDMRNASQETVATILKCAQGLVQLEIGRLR
Set-up: key: below the threshold = too weak to quantify, mostly under pKd 3.1 to 4

| Binder | pKd |
| --- | --- |
| LEPAVRSSEL [SH2D3C, Q8N5H7] | below the threshold |
| RELVMRVTTV [MARCHF4, Q9P2E8] | 3.82 |

These binders were tested against MAGI1_1, Q96QZ7 (assay: holdup assay). Conditions: plain residues with an end cap or a label only (N-terminal biotin on a linker: ado-ado).
MAGI1_1, Q96QZ7, sequence (Q96QZ7 1-106): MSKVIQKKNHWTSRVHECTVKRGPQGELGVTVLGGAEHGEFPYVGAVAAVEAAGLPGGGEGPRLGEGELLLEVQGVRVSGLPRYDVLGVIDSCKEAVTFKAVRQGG
Set-up: key: below the threshold = too weak to quantify, mostly under pKd 3.1 to 4

| Binder | pKd |
| --- | --- |
| LEPAVRSSEL [SH2D3C, Q8N5H7] | below the threshold |
| RELVMRVTTV [MARCHF4, Q9P2E8] | below the threshold |

Each binder was assayed against T6, MPDZ_5, O75970 (assay: holdup assay). Conditions: plain residues with an end cap or a label only (N-terminal biotin on a linker: ado-ado).
Set-up: key: below the threshold = too weak to quantify, mostly under pKd 3.1 to 4

| Binder | pKd |
| --- | --- |
| LEPAVRSSEL [SH2D3C, Q8N5H7] | below the threshold |
| RELVMRVTTV [MARCHF4, Q9P2E8] | below the threshold |

Each binder was assayed against T7, NHERF3_1, Q5T2W1 (assay: holdup assay). Conditions: plain residues with an end cap or a label only (N-terminal biotin on a linker: ado-ado).
Set-up: key: below the threshold = too weak to quantify, mostly under pKd 3.1 to 4

| Binder | pKd |
| --- | --- |
| LEPAVRSSEL [SH2D3C, Q8N5H7] | 5.33 |
| RELVMRVTTV [MARCHF4, Q9P2E8] | below the threshold |

Each binder was assayed against PARD3_3, Q8TEW0 (assay: holdup assay). Conditions: plain residues with an end cap or a label only (N-terminal biotin on a linker: ado-ado).
PARD3_3, Q8TEW0, sequence (Q8TEW0 582-685): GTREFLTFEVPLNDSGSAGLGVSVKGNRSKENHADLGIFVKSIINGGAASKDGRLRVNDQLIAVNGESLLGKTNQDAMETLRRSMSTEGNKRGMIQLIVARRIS
Set-up: key: below the threshold = too weak to quantify, mostly under pKd 3.1 to 4

| Binder | pKd |
| --- | --- |
| LEPAVRSSEL [SH2D3C, Q8N5H7] | below the threshold |
| RELVMRVTTV [MARCHF4, Q9P2E8] | below the threshold |

The binders below were run against T8, SHANK1, Q9Y566 (assay: holdup assay). Conditions: plain residues with an end cap or a label only (N-terminal biotin on a linker: ado-ado).
Set-up: key: below the threshold = too weak to quantify, mostly under pKd 3.1 to 4

| Binder | pKd |
| --- | --- |
| LEPAVRSSEL [SH2D3C, Q8N5H7] | 3.86 |
| RELVMRVTTV [MARCHF4, Q9P2E8] | 3.58 |

Each binder was assayed against T9, SNTB1, Q13884 (assay: holdup assay). Conditions: plain residues with an end cap or a label only (N-terminal biotin on a linker: ado-ado).
Set-up: key: below the threshold = too weak to quantify, mostly under pKd 3.1 to 4

| Binder | pKd |
| --- | --- |
| LEPAVRSSEL [SH2D3C, Q8N5H7] | 4.11 |
| RELVMRVTTV [MARCHF4, Q9P2E8] | 5.11 |

These binders were tested against T10, SNTG1, Q9NSN8 (assay: holdup assay). Conditions: plain residues with an end cap or a label only (N-terminal biotin on a linker: ado-ado).
Set-up: key: below the threshold = too weak to quantify, mostly under pKd 3.1 to 4

| Binder | pKd |
| --- | --- |
| LEPAVRSSEL [SH2D3C, Q8N5H7] | below the threshold |
| RELVMRVTTV [MARCHF4, Q9P2E8] | 4.95 |

Each binder was assayed against T11, SNTG2, Q9NY99 (assay: holdup assay). Conditions: plain residues with an end cap or a label only (N-terminal biotin on a linker: ado-ado).
Set-up: key: below the threshold = too weak to quantify, mostly under pKd 3.1 to 4

| Binder | pKd |
| --- | --- |
| LEPAVRSSEL [SH2D3C, Q8N5H7] | below the threshold |
| RELVMRVTTV [MARCHF4, Q9P2E8] | 4.64 |

The binders below were run against T12, TJP3_3, O95049 (assay: holdup assay). Conditions: plain residues with an end cap or a label only (N-terminal biotin on a linker: ado-ado).
Set-up: key: below the threshold = too weak to quantify, mostly under pKd 3.1 to 4

| Binder | pKd |
| --- | --- |
| LEPAVRSSEL [SH2D3C, Q8N5H7] | below the threshold |
| RELVMRVTTV [MARCHF4, Q9P2E8] | below the threshold |
